Data as given in publication PMC3477590 (Molecular cell, 2012).

Target: minimally biotinylated GLMN (wild-type) (human, UniProt Q92990 1-594, minimally biotinylated)
Test: SPR

Chain of minimally biotinylated GLMN (wild-type) (Q92990 whole entry): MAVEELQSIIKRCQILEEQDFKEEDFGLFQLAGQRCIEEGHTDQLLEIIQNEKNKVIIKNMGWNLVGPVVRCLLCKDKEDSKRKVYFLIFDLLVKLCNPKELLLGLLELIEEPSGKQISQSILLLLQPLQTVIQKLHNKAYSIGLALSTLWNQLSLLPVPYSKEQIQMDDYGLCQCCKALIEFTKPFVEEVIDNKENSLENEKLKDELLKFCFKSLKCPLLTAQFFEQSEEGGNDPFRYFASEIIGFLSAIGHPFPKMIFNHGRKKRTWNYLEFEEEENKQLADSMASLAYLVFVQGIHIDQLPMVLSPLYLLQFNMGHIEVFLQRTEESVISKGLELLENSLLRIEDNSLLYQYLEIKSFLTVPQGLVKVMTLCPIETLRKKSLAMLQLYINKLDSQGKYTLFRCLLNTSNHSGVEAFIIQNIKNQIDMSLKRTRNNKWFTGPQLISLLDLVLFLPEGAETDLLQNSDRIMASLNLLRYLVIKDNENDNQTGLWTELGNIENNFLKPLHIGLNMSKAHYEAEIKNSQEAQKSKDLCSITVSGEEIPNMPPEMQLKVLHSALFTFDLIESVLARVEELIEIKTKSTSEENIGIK

B1: isolated RBX1 RING domain (domain or fragment)
chain: not shown
Kd: 38.6 nM
